Consider two molecules from US20230112123A1 (published 2023).

This experiment has as its target T1, human CD70 (human, UniProt P32970 1-193).
T1 chain: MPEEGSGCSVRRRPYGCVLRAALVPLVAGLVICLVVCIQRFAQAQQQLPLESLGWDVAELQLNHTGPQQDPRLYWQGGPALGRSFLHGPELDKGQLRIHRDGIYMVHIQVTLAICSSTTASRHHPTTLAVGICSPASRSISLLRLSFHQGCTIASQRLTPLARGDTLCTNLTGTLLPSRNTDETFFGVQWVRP
The experiment is described as follows: FACS blocking of CD27(ECD)-Fc binding; CHO-CD70 cells.

By IC50 is commonly meant the midpoint of a concentration-inhibition curve.

B1: Cusatuzumab (antibody, V domains shown)
VH: EVQLVESGGGLVQPGGSLRLSCAASGFTFSVYYMNWVRQAPGKGLEWVSDINNEGGTTYYADSVKGRFTISRDNSKNSLYLQMNSLRAEDTAVYYCARDAGYSNHVPIFDSWGQGTLVTVSS
VL: QAVVTQEPSLTVSPGGTVTLTCGLKSGSVTSDNFPTWYQQTPGQAPRLLIYNTNTRHSGVPDRFSGSILGNKAALTITGAQADDEAEYFCALFISNPSVEFGGGTQLTVLG
B1 yielded a 50% inhibitory concentration (IC50) of 2.39 nM.

B2: IMM40H (antibody, V domains shown)
VH: QVQLVQSGAEVKKPGASVKVSCKVSGYTFTDSALHWVRQAPGKGLEWMGVISTYDGDTDYNQKFKGRVTMTEDTSTDTAYMELSSLRSEDTAVYYCARRGYYDYDWFPYWGQGTLVTVSA
VL: DIVLTQSPASLAVSPGQRATITCRASKSVSASGYSFLHWYQQKPGQPPKLLIYLASNLESGVPARFSGSGSGTDFTLTINPVEANDTANYYCQHSRELPPTFGGGTKVEIKR
The molecule B2 came in with a half-inhibitory concentration (IC50) of 2.04 nM.
